Reference: US20040067231A1 (published 2004)

Biological target: T1, human PTHrP (1-34) (human)
T1 construct: Synthetic peptide (Peninsula; Peptide Research Institute); Coated on the ELISA plate at 1 µg/ml; used in solid phase RIA for the hybridoma screening; also called parathyroid hormone related peptide (1-34)
Assay: ELISA on coated human PTHrP (1-34)
Experimental: An ELISA plate for determining antigen-binding ability was prepared as follows. Each well of a 96-well ELISA plate (Maxisorp, NUNC) was coated with 100 μl of a coating buffer containing 1 μg/ml of human PTHrP (1-34) and then blocked with 200 μl of a dilution buffer. Subsequently, each well was added with each of the serial dilutions of the COS-7 cell culture supernatant in which each of the hybrid antibodies and humanized antibodies was expressed, or added with each of the serial dilutions of each of the hybrid antibodies and humanized antibodies in a purified form. The plate was incubated at room temperature and washed with PBS-Tween 20. Subsequently, each well was added with 100 μl of alkaline phosphatase-conjugated goat anti-human IgG antibody (TAGO). The plate was incubated at room temperature and washed with PBS-Tween 20. Subsequently, each well was added with 1 mg/ml of a substrate solution (“Sigma 104”, p-nitrophenylphosphoric acid, SIGMA). The solution was measured on its absorbance at 405 nm using Microplate Reader (Bio Rad).

Binder | binding result
antibody having both a humanized H-chain version “a” and a chimeric L-chain (antibody, V domains shown, H-chain C-region is human Cγ1) VH: QVQLVESGGGVVQPGRSLRLSCAASGFTFSSYGMSWVRQAPGKGLEWVATISSGGSYTYYPDSVKGRFTISRDNSKNTLYLQMNSLRAEDTAVYYCARQTTMTYFAYWGQGTLVTVSS VL: QLVLTQSSSASFSLGASAKLTCTLSSQHSTYTIEWYQQQPLKPPKYVMDLKQDGSHSTGDGIPDRFSGSSSGADRYLSISNIQPEDEAMYICGVGDTIKEQFVYVFGGGTKVTVLG | binds
mouse FR1,2/human FR3,4 hybrid antibody with L-chain m/hMBC1Ldλ (antibody, V domains shown, H-chain from hMBC1HcDNA/pCOS1 (humanized version a, human Cγ1); L-chain C-region human λ; Expressed in COS-7 cells) VH: QVQLVESGGGVVQPGRSLRLSCAASGFTFSSYGMSWVRQAPGKGLEWVATISSGGSYTYYPDSVKGRFTISRDNSKNTLYLQMNSLRAEDTAVYYCARQTTMTYFAYWGQGTLVTVSS VL: QLVLTQSSSASFSLGASAKLTCTLSSQHSTYTIEWYQQQPLKPPKYVMDLKQDGSHSTGDGIPDRFSGSSSGAERYLTISSLQSEDEADYICGVGDTIKEQFVYVFGGGTKLTVL | binds
humanized #23-57-137-1 antibody having L-chain version “q” (antibody, V domains shown, Humanized H-chain version a with human Cγ1; L-chain with human λ C-region; also called humanized antibody L-chain version “q”; hMBC1HcDNA and hMBC1Lqλ) VH: QVQLVESGGGVVQPGRSLRLSCAASGFTFSSYGMSWVRQAPGKGLEWVATISSGGSYTYYPDSVKGRFTISRDNSKNTLYLQMNSLRAEDTAVYYCARQTTMTYFAYWGQGTLVTVSS VL: QLVLTQSPSASASLGASVKLTCTLSSQHSTYTIEWYQQQPEKGPKYLMDLKQDGSHSTGDGIPDRFSGSSSGAERYLTISSLQSEDEADYICGVGDTIKEQFVYVFGGGTKLTVLG | binds
humanized #23-57-137-1 antibody having L-chain version “j” (antibody, V domains shown, Humanized H-chain version a with human Cγ1; L-chain with human λ C-region (Cλ/pUC19); also called hMBC1HcDNA/pCOS1 and hMBC1Ljλ/pCOS1) VH: QVQLVESGGGVVQPGRSLRLSCAASGFTFSSYGMSWVRQAPGKGLEWVATISSGGSYTYYPDSVKGRFTISRDNSKNTLYLQMNSLRAEDTAVYYCARQTTMTYFAYWGQGTLVTVSS VL: QLVLTQSPSASASLGASVKLTCTLSSQHSTYTIEWYQQQPEKGPKYLMDLKQDGSHSTGDGIPDRFSGSSSGAERYLTISSLQSEDEADYYCGVGDTIKEQFVYVFGGGTKLTVLG | binds
mouse FR1,2/human FR3,4 hybrid antibody with L-chain m/hMBC1Laλ (antibody, V domains shown, H-chain from hMBC1HcDNA/pCOS1 (humanized version a, human Cγ1); L-chain C-region human λ; Expressed in COS-7 cells) VH: QVQLVESGGGVVQPGRSLRLSCAASGFTFSSYGMSWVRQAPGKGLEWVATISSGGSYTYYPDSVKGRFTISRDNSKNTLYLQMNSLRAEDTAVYYCARQTTMTYFAYWGQGTLVTVSS VL: QLVLTQSSSASFSLGASAKLTCTLSSQHSTYTIEWYQQQPLKPPKYVMDLKQDGSHSTGDGIPDRFSGSSSGAERYLTISSLQSEDEADYYCGVGDTIKEQFVYVFGGGTKLTVL | binds

Results, then the binder that gave them:

binding result | Binder
binds | human FR1/mouse FR2,3,4 hybrid antibody with L-chain hmmMBC1L(λ) (antibody, V domains shown, H-chain from hMBC1HcDNA/pCOS1 (humanized version a, human Cγ1); L-chain C-region human λ; Expressed in COS-7 cells; also called FR1/FR2 hybrid antibody) VH: QVQLVESGGGVVQPGRSLRLSCAASGFTFSSYGMSWVRQAPGKGLEWVATISSGGSYTYYPDSVKGRFTISRDNSKNTLYLQMNSLRAEDTAVYYCARQTTMTYFAYWGQGTLVTVSS VL: QLVLTQSPSASASLGASVKLTCTLSSQHSTYTIEWYQQQPLKPPKYVMDLKQDGSHSTGDGIPDRFSGSSSGADRYLSISNIQPEDEAMYICGVGDTIKEQFVYVFGGGTKVTVL
binds | humanized #23-57-137-1 antibody having L-chain version “o” (antibody, V domains shown, Humanized H-chain version a with human Cγ1; L-chain with human λ C-region; also called hMBC1HcDNA/pCOS1 and hMBC1Loλ/pCOS1) VH: QVQLVESGGGVVQPGRSLRLSCAASGFTFSSYGMSWVRQAPGKGLEWVATISSGGSYTYYPDSVKGRFTISRDNSKNTLYLQMNSLRAEDTAVYYCARQTTMTYFAYWGQGTLVTVSS VL: QLVLTQSPSASASLGASVKLTCTLSSQHSTYTIEWYQQQPEKGPRYVMDLKQDGSHSTGDGIPDRFSGSSSGAERYLTISSLQSEDEADYYCGVGDTIKEQFVYVFGGGTKLTVLG
binds | humanized #23-57-137-1 antibody having L-chain version “m” (antibody, V domains shown, Humanized H-chain version a with human Cγ1; L-chain with human λ C-region; also called hMBC1HcDNA/pCOS1 and hMBC1Lmλ/pCOS1) VH: QVQLVESGGGVVQPGRSLRLSCAASGFTFSSYGMSWVRQAPGKGLEWVATISSGGSYTYYPDSVKGRFTISRDNSKNTLYLQMNSLRAEDTAVYYCARQTTMTYFAYWGQGTLVTVSS VL: QLVLTQSPSASASLGASVKLTCTLSSQHSTYTIEWYQQQPEKGPRYLMDLKQDGSHSTGDGIPDRFSGSSSGAERYLTISSLQSEDEADYYCGVGDTIKEQFVYVFGGGTKLTVLG
binds | humanized #23-57-137-1 antibody having L-chain version “t” (antibody, V domains shown, Humanized H-chain version a with human Cγ1; L-chain with human λ C-region; also called hMBC1HcDNA/pCOS1 and hMBC1Ltλ/pCOS1) VH: QVQLVESGGGVVQPGRSLRLSCAASGFTFSSYGMSWVRQAPGKGLEWVATISSGGSYTYYPDSVKGRFTISRDNSKNTLYLQMNSLRAEDTAVYYCARQTTMTYFAYWGQGTLVTVSS VL: QLVLTQSPSASASLGASVKLTCTLSSQHSTYTIEWYQQQPEKGPRYVMDLKQDGSHSTGDGIPDRFSGSSSGAERYLTISSLQSEDEADYICGVGDTIKEQFVYVFGGGTKLTVLG
binds | humanized #23-57-137-1 antibody having L-chain version “l” (antibody, V domains shown, Humanized H-chain version a with human Cγ1; L-chain with human λ C-region; also called hMBC1HcDNA/pCOS1 and hMBC1Llλ/pCOS1) VH: QVQLVESGGGVVQPGRSLRLSCAASGFTFSSYGMSWVRQAPGKGLEWVATISSGGSYTYYPDSVKGRFTISRDNSKNTLYLQMNSLRAEDTAVYYCARQTTMTYFAYWGQGTLVTVSS VL: QLVLTQSPSASASLGASVKLTCTLSSQHSTYTIEWYQQQPEKGPKYVMDLKQDGSHSTGDGIPDRFSGSSSGAERYLTISSLQSEDEADYYCGVGDTIKEQFVYVFGGGTKLTVLG
